The results in this text go back to patent US10941208B2, “Anti-MUC16 antibodies” (Regeneron Pharmaceuticals, Inc., priority 2016, dated 2021).

For experiment [1], the target named is T1, soluble monomeric human MUC16 (hMUC16.mmh, last five SEA domains, SEQ ID: 1902) (Homo sapiens, UniProt Q8WXI7).
T1 construct: mmh (myc-myc-hexahistidine)
The experiment can be described thus: Surface plasmon resonance (BIACORE) binding to hMUC16 fragment at 25° C. Further details: key to ka / kd / KD / t 1/2: NB: No binding. To be noted: for ka / kd / KD / t 1/2: 25° C.; for binding to soluble truncated human MUC16 protein via surface plasmon resonance (in words): truncated format encompassing the last five SEA domains. As to the method: Antibodies were captured onto a CM4 or CM5 BIACORE sensor surface (GE Healthcare Life Sciences) derivatized via amine coupling with a monoclonal anti-human Fc antibody (GE, # BR-1008-39) or a monoclonal goat anti-mouse Fc antibody (GE, # BR-1008-38). Various concentrations of soluble monomeric human MUC16, in a truncated format encompassing the last five SEA domains of Mucin-16 (hMUC16.mmh, or MUC16 “nub”, SEQ ID: 1902) were injected over the anti-MUC16-antibody captured surface at a flow rate of 50 uL/minute (BIACORE T 200) or 30 uL/minute (BIACORE 4000). Antibody-reagent association was monitored for 4 min and the dissociation was monitored for 6-10 min. All binding studies were performed in HBS-ET buffer (0.01M HEPES pH 7.4, 0.15M NaCl, 0.05% v/v Surfactant P20).
Kinetic association (ka) and dissociation (kd) rate constants were determined by fitting the real-time sensorgrams to a 1:1 binding model using Scrubber 2.0c curve fitting software. Binding dissociation equilibrium constants (KD) and dissociative half-lives (t½) were calculated from the kinetic rate constants as: […]
On the technique in general: Surface plasmon resonance follows binding to a sensor surface in real time, without labels.

Experiment [2] deals with T2, hMUC16 endogenously expressed on OVCAR-3 cell line (Homo sapiens, UniProt Q8WXI7).
T2 construct: OVCAR-3 cells endogenously express MUC-16; endogenous in cells; host or cells: OVCAR-3 (also luciferase-transduced OVCAR3-Luc)
The experiment can be described thus: Electrochemiluminescence (MSD) cell binding, OVCAR-3 vs SK-OV-3. Conditions: cell-based binding assay. Here is the method: The ability of anti-MUC16 antibodies to bind specifically to endogenously expressing MUC16 on the human ovarian carcinoma cell line (OVCAR-3) was evaluated via an electrochemiluminescence based detection assay (Meso Scale Discovery (MSD), Rockville, Md.). […] Detached cells were then washed once in 1×PBS supplemented with Ca^2+/Mg^2+ and counted (Cellometer Auto T4 cell counter, Nexcelom Bioscience, Lawrence, Mass.). Approximately 1.0×10^4 cells were plated in MULTI-ARRAY 96-well carbon electrode plates (MSD) and incubated for 1 h at 37° C. […] Next, serial dilutions of anti-MUC16 or control antibodies (0.85 pM-50 nM) and no-antibody buffer controls were added to the plate-bound cells and incubated for 1 h at room temperature (RT). […] Plate-bound antibodies were detected with a SULFO-TAG™-conjugated anti-human kappa light chain antibody (Regeneron) or a SULFO-TAG™-conjugated anti-mouse IgG antibody (Jackson Immunoresearch, West Grove, Pa.) for 1 h at RT. Post-wash, plates were developed with Read Buffer (MSD) according to manufacturer's protocol and luminescent signals were recorded with a SECTOR Imager 6000 (MSD) instrument.
Luminescence intensity, measured in relative light units (RLU), for the two cell lines was recorded to indicate the binding intensity of each antibody.

The mark [3] stands for this setting: Human Fc anti-MUC16 antibodies (H1H), Table 5B.
The mark [4] stands for this setting: Hybridoma anti-MUC16 antibodies (H1M, H2M, H3M), Table 5A.

T1 sequence (Q8WXI7 with tags, fused parts or gaps): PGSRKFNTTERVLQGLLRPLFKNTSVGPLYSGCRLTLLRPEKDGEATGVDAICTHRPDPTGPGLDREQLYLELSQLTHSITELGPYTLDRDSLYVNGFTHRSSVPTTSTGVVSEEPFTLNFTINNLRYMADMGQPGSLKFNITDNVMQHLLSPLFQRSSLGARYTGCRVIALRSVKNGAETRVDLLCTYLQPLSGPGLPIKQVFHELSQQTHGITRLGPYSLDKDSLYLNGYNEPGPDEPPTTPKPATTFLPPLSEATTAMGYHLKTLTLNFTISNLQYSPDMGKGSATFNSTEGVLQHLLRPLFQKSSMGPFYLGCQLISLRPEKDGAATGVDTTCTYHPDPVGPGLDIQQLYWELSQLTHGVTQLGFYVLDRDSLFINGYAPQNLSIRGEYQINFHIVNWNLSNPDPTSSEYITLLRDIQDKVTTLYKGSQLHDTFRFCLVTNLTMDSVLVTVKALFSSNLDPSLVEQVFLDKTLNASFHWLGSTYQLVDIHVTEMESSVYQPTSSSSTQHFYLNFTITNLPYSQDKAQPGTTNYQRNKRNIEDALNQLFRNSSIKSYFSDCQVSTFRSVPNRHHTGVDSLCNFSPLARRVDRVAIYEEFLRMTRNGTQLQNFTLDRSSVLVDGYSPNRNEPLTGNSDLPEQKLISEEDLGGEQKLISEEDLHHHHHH

B1: H1H8755P: anti-MUC16 antibody, human IgG1 Fc; HCVR/LCVR SEQ ID NOs: 2/10 (antibody, V domains shown)
VH: EVQLVESGGGLVQPGRSLRLSCAASGFTFNDYAMHWVRQSPGKGLEWVSGIDWNGGSIDYADSVKGRFTISRDTAKNSLYLQMNSLKVEDTALYYCAKDIGHWNYIGGMDVWGQGTTVTVSS
VL: DIQMTQSPSSLSASVGDRVTITCRASQSINIYLNWYQQKPGKAPKFLIYAASSLQTGVPSRFSGSGSGTDFTLTISSLEPEDFATYYCQHSYSTPPITFGQGTRLEIK
For B1, in experiment [1] (setting [3]), the ka is 522000 M⁻¹ s⁻¹ and the kd came out at 0.000149 s⁻¹.

B2: H1H8808P: anti-MUC16 antibody, human IgG1 Fc; HCVR/LCVR SEQ ID NOs: 130/138 (antibody, V domains shown)
VH: QVQLVESGGGVVQPGRSLRLSCVASGFTFSNYGIHWVRQAPGKGLEWVAVISDDGSFKFYADSVKGRFTISRDNSKNTLYLQMNSLRVEDSAVYHCAKWQHNWNDGGFDYWGQGTLVTVSS
VL: EIVLTQSPDTLSLSPGERATLSCRASQSLSSNYLAWYRQKPGQAPRLLIYGISSRATGIPDRFSGSGSGTDFTLTISRLEPEDFAVYYCQQYGSSPWTFGQGTKVEIK
In experiment [1] (setting [3]), B2 yielded a ka of 4120 M⁻¹ s⁻¹ and a kd of 0.000216 s⁻¹.

B3: H1M9528N: anti-MUC16 hybridoma antibody, mIgG1; HCVR/LCVR SEQ ID NOs: 234/242 (antibody, V domains shown)
VH: QMQLQESGPGLVKPSETLSLTCTVSGGSISSYYWNWIRQPPGKGLEWIGYIYYSGNNFNPSLKSRVTISVDTSKNQFSLKLSSVTAADTAVYYCARAFHWNYEFDYWGQGTLVTVSS
VL: EIVLTQSPGTLSLSPGERATLSCRASQSVSNNYLAWYQQKPGQAPRLLLYGASSRTTDIPDRFSGSGSGTDFTLTISRLEPEDFAVYYCQQYDNSPLTFGGGTKVEIR
For B3, in experiment [2], the “specific binding to endogenous human MUC16 expressed on OVCAR-3 cells (in words)” value is recorded as “specific binding”. Also, in experiment [1] (setting [4]), the KD entry was “NB”, the ka entry is “NB”, the kd result was “NB” and the “t 1/2” value was “NB”. Besides, the “binding to soluble truncated human MUC16 protein via surface plasmon resonance (in words)” value in experiment [1] is recorded as “no binding”.

B4: H3M9529N: anti-MUC16 hybridoma antibody, mIgG3; HCVR/LCVR SEQ ID NOs: 378/386 (antibody, V domains shown)
VH: QVQLQQWGAGLLKPSETLSLTCAVYGGSFSGFYWSWIRQPPGKGLEWIGEINHSGSAKYNPSLKNRVIISIDTSKNQFSLKLDSVTAADTAVYNCARQGWNFAIFDYWGQGTLVDVSS
VL: DIVMTQSPDSLAVSLGGRATINCKSSQSVLHSSYNKDHLAWYQQRPGQPPKLLIYWASTRESGVPDRFSGSGSGTDFTLTISSLQAEDVAVYYCQQYNILPPTFGQGTRVEIK
For B4, the “specific binding to endogenous human MUC16 expressed on OVCAR-3 cells (in words)” value in experiment [2] is on record as “specific binding”. Further, in experiment [1] (setting [4]), the KD entry is reported as “NB”, the ka result was “NB”, the kd entry is on record as “NB” and the “t 1/2” value is “NB”. Moreover, in experiment [1], the “binding to soluble truncated human MUC16 protein via surface plasmon resonance (in words)” value is “no binding”.

B5: H2M7135N: anti-MUC16 hybridoma antibody, mIgG2; HCVR/LCVR SEQ ID NOs: 298/306 (antibody, V domains shown)
VH: EVQLVESGGGLVQAGGSLRLSCAASGFTFSYHEMNWVRQAPGKGLEWVSYIGSRGTTKHYADPVKGRFTISRDNAKNSLYLQMNSLRAEDTAVYYCASEVGSILGYSMDVWGQGTTVTVSS
VL: DIQMTQSPSSLSASVGDRVTITCRASQSVSRYLNWCQQKPGKAPKLLTYAASSLQSGVPSRFSGSGSGTDFTLTISSLQPEDFAAYFCQQSYSTPPITFGQGTRLEIK
In experiment [1] (setting [4]), B5 yielded a ka of 51000 M⁻¹ s⁻¹ and a kd of 0.000218 s⁻¹.

B6: H1H8783P: anti-MUC16 antibody, human IgG1 Fc; HCVR/LCVR SEQ ID NOs: 50/58 (antibody, V domains shown)
VH: QVQLVESGGGVVQPGRSLRLSCAASGFTFSDHAMHWVRQAPGKGLEWVAVISYHGTDKQYGDSVKGRFTISRDNSKNALYLQMNSLRPEDTAMYYCAKDGYDFWNAYSLFDYWGQGTLVTVSS
VL: DIQMTQSPSSLSASVGDRVTITCRASQSISNYLNWYQQKPGKAPKLLIYTASSLLSGVPSRFSGSGSGTDFTLTISSLQPEDFATYYCQQSYSTPPITFGQGTRLEIK
Turning to B6, in experiment [1] (setting [3]), the ka was 174000 M⁻¹ s⁻¹ and the kd was determined as 0.000107 s⁻¹.

B7: H1H8770P: anti-MUC16 antibody, human IgG1 Fc; HCVR/LCVR SEQ ID NOs: 34/42 (antibody, V domains shown)
VH: QVQLVESGGGVVQPGRSLRLSCAASGFTFSDHGMHWVRQAPGKGLEWVAVISYHGSNKHYADSVKGRFTISRDNSKNALYLQMNSLRPEDTAMYYCAKDGYDFWNGYSLFDYWGQGTLVTVSS
VL: DIQMTQSPSSLSASVGDRVTITCRASQSISNYLNWYQQKPGKAPKLLIYTASNLLSGVPSRFSGSGSGTDFTLTISSLQPEDFATYYCQQSYSTPPITFGQGTKLEIK
In the case of B7, in experiment [1] (setting [3]), the ka is 247000 M⁻¹ s⁻¹ and the kd worked out at 0.000308 s⁻¹.
